In article PMC10550955:

Tests used:
γ-globulin = assay: SPR; homotypic: protein immobilised on CM5 or CM3 chip (~800-1000 RU), the same protein injected at increasing concentrations; BIAcore T200; 20 mM sodium phosphate buffer, pH 7.4; two-state model, one-state model for α-Syn and Chymo
β-cas = assay: as above

Kd (γ-globulin) [µM]	Kd (β-cas) [µM]	Substance
< 0.5	–	γ-globulin (natural protein)
–	< 0.5	β-cas (natural protein)
